Results taken from patent EP4059949A1 (AFFILOGIC, dated 2022).
Changes are numbered by the printed parent chain.

B1: anti-C3 Nanofitin B10 with N-terminal peptide (10-mers) and C-terminal 30 kDa protein (designed binder, part only; not given: peptide tag and 30 kDa protein, not shown: small tags and cut ends)
chain, part: MVKVKFDATGEEKEVDTSKISAVYRTGKDVLFSYDDNGKIGWGYVSEKDAPKELLDLLARAERE
B2: anti-C3 Nanofitin B10 without N- or C-terminal tag (designed binder)
chain: B1 chain, part
notes: also called Nter tag none, Cter tag none
B3: B10 (SEQ ID NO: 25), GFP tagged Nanofitin (designed binder)
chain: B1 chain, part
notes: Variant of Nf1 from off-rate selection; not shown: GFP tag
B4: anti-C3 Nanofitin B10 with N-terminal 48 kDa protein (designed binder, part only; not given: 48 kDa fusion protein, part only)
chain, part: B1 chain, part
B5: H03 (SEQ ID NO: 26), GFP tagged Nanofitin (designed binder)
chain: B1 chain, part with D7A, S21A, A22N, T26V
notes: as for B3

Tests used:
[1] = biological target: complement component C3b (obtained after hydrolysis of C3) (UniProt P01024); test: biolayer interferometry
[2] = biological target: T1, complement component C3b (obtained after hydrolysis of C3) (UniProt P01024 23-667; P01024 749-1663); test: biolayer interferometry; B10 made by full chemical synthesis
[3] = biological target: T1, complement component C3b (obtained …); test: biolayer interferometry; B10 made recombinantly in E. coli
[4] = biological target: T1, complement component C3b (obtained …); test: biolayer interferometry (Octet RED96), GFP tagged Nanofitin captured by anti-GFP Nanofitin, C3b in solution, 1:1 fit

T1 sequence (P01024 23-667 limits assumed, chain 1 of 2): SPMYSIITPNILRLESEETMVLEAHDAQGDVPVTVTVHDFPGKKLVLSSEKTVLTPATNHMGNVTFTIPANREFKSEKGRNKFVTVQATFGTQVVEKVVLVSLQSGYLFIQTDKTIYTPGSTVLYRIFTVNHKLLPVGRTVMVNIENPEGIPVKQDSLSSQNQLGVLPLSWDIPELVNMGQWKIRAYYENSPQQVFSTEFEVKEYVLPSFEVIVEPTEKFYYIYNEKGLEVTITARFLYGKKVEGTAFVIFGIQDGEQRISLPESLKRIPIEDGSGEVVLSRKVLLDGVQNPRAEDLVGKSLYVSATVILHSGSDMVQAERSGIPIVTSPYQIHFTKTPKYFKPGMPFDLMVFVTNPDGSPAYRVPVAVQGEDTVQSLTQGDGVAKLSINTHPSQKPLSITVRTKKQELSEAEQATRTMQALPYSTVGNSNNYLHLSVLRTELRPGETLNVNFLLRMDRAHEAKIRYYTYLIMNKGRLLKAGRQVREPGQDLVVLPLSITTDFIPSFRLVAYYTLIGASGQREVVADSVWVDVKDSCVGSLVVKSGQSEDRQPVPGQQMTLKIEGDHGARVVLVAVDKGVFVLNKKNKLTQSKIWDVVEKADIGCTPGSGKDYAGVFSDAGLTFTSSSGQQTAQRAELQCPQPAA
T1 sequence (P01024 749-1663 limits assumed, chain 2 of 2): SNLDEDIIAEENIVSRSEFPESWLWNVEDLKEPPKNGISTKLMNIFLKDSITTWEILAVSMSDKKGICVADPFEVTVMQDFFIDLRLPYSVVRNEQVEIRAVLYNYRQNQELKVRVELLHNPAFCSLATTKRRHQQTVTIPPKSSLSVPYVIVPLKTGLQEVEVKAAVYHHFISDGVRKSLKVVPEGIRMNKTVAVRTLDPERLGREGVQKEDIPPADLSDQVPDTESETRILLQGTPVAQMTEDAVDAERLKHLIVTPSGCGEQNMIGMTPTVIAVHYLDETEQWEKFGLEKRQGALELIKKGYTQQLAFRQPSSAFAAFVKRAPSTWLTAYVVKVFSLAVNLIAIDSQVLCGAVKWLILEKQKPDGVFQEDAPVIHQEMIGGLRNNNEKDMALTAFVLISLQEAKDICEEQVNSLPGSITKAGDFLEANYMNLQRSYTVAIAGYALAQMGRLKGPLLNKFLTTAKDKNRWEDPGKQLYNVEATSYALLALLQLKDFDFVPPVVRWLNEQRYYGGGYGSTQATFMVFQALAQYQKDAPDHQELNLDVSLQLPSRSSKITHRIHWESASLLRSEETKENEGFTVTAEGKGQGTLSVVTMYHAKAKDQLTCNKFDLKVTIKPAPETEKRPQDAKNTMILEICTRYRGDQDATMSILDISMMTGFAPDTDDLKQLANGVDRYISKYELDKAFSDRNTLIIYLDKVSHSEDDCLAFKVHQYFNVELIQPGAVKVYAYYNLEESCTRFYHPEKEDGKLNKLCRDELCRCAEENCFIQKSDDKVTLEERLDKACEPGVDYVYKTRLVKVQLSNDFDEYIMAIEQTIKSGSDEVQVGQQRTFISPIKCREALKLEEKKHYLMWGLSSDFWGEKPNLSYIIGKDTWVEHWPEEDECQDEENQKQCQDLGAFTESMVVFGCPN
Chain of complement component C3b (obtained after hydrolysis of C3) (UniProt P01024) (P01024 23-667 limits assumed, chain 1 of 2): as the sequence (P01024 23-667 limits assumed, chain 1 of 2) above
Chain of complement component C3b (obtained after hydrolysis of C3) (UniProt P01024) (P01024 749-1663 limits assumed, chain 2 of 2): as the sequence (P01024 749-1663 limits assumed, chain 2 of 2) above

Binder | Kd [1] | Kd [4] | koff [4] | kon [4] | also measured
B1 | 7.3 nM | – | – | – | –
B2 | – | – | – | – | Kd [2]: 18 nM; Kd [3]: 18.5 nM
B3 | – | 7.31 nM | 0.000433 s⁻¹ | 59200 M⁻¹ s⁻¹ | –
B4 | 6.7 nM | – | – | – | –
B5 | – | 2.89 nM | 0.000188 s⁻¹ | 65200 M⁻¹ s⁻¹ | –
